Legend:
[1] = Ca2+-responsive mFAP Ca2+ titrations; assay type: binding
Experimental: In measuring Ca^2+ affinity of mFAPs on a Synergy Neo2 hybrid multi-mode reader (Fig. 4d, e, f and Supplementary Figs. 10c, f, i, 11c, f, i, 13c, f, i, 16b), large-scale purified proteins[49] were aliquoted in technical triplicate to a final concentration of 500 nM with 5.00 μM DFHBI in eleven serial dilutions ( 10 dilution factor) of CaCl2 (Sigma Aldrich) starting from either 900 mM or 90.0 mM CaCl2 (diluted using high-salt Tev cleavage buffer) including a twelfth condition without CaCl2. Final volumes were 200 μL in flat bottom, black polystyrene, non-binding surface 96-well microplates (Corning 3650). Fluorescence endpoints were measured using excitation wavelength λex = 484 nm and emission wavelength λem = 508 nm. Background fluorescence endpoints of wells with identical chromophore and CaCl2 concentrations lacking protein (substituted for equivalent volumes of high-salt Tev cleavage buffer) were measured in technical triplicate, averaged per condition, and subtracted from protein measurement averages of the same conditions.
For Ca^2+ titrations of EF4n_mFAP2a and EF4n_mFAP2b (Supplementary Fig. 13c), a small amount of Chelex 100 sodium form (Sigma Aldrich) was added to purified protein (produced by large-scale protein purification and SEC purification[49]) and nutated at 4 °C overnight. EF4n_mFAP2a was aliquoted in technical triplicate to a final concentration of 8.00 μM with 80.0 μM DFHBI and EF4n_mFAP2b was aliquoted in technical triplicate to a final concentration of 6.25 μM with 43.4 μM DFHBI, in eleven serial dilutions ( 10 dilution factor) of CaCl2 starting from 9.00 mM or 4.00 mM CaCl2 (diluted using high-salt Tev cleavage buffer pre-treated with Chelex 100) including a twelfth condition without CaCl2. Final volumes were 25.0 μL in flat bottom, black polystyrene, non-binding surface 96-well half-area microplates (Corning 3686) or 200 μL in flat bottom, black polystyrene, non-binding surface 96-well microplates (Corning 3650). Fluorescence endpoints were measured for EF4n_mFAP2a using excitation wavelength λex = 478 nm and emission wavelength λem = 520 nm, and for EF4n_mFAP2b using excitation wavelength λex = 484 nm and emission wavelength λem = 508 nm. Background fluorescence endpoints of wells with identical chromophore and CaCl2 concentrations lacking protein (substituted for equivalent volumes of high-salt Tev cleavage buffer) were measured in technical triplicate, averaged per condition, and subtracted from protein measurement averages of the same conditions. For non-linear least squares fitting to obtain Kd values, means were fit to a single-binding site isotherm function where Ca^2+-binding sites were modeled independently with a Hill coefficient of 1.

[2] = system: human induced pluripotent stem cell (hiPSC)-derived cardiomyocytes; experiment: Contraction and SR Ca2+ transient imaging of cardiomyocytes; assay type: cell-based; settings: SR-targeted; image acquisition ~16.7 Hz
Experimental: hiPSC culture and cardiomyocyte differentiation: Undifferentiated IMR90 human induced pluripotent stem cells (hiPSCs) (WiCell) were maintained in mTeSR-1 (StemCell Technologies) on tissue culture plastic coated with Matrigel diluted 1:60 (Corning) at 37 °C and 5% CO2. Cardiomyocytes were differentiated using a monolayer-based directed differentiation protocol. hiPSCs were dissociated into a single cell suspension using Versene (Life Technologies) and plated at a high density (1.5–2.5·10^5 cells cm^−2) in mTeSR containing 10 µM Y-27632 ROCK inhibitor onto Matrigel-coated plates. Twenty-four hours after plating, media was replaced with fresh mTeSR. […]
Contraction and SR Ca^2+ transient imaging: Leica DMI8 microscope controlled by MetaMorph Imaging software was used to image contraction and Ca^2+ transients of the SR in CMs. […] For mapping contraction, three different ROI traces were hand-drawn, and displacement of cells were measured in the fluorescence channel. […] In order to quantify tissue-level Ca^2+ fluxes during cardiac contraction cycling, fluorescence fold-change over the whole field of view was calculated for each frame then temporally matched with contraction data. Fluorescence fold-change in each frame was calculated by Eq. (11) where F is the fluorescence per frame, and F0 is the fluorescence of the frame with the minimum fluorescence (Fig. 5f and Supplementary Fig. 19b). […]

Circular dichroism = assay type: physicochemical; settings: absence of DFHBI
Experimental: Circular dichroism (CD) measurements were recorded at 25 °C in a 1 mm cuvette on an AVIV model 420 CD spectrometer (Biomedical, Inc.). mFAP2 and mFAP2.1 were purified by large-scale protein purification and SEC purification[49] in phosphate-buffered saline (PBS) (25.0 mM phosphate, 150 mM NaCl, pH 7.40), and far-ultraviolet CD wavelength scans recorded from 195 nm to 260 nm. mFAP2 was measured at 0.441 mg mL^−1 and mFAP2.1 at 0.500 mg mL^−1 in Na2HPO4-citrate buffer with pH adjusted to 7.75, 3.96, or 2.93 using NaOH and HCl. The reported data was background-subtracted using buffer only contols (Supplementary Fig. 1b, c).

[3] = pH-sensitivity of β-barrel variants (fluorescence ratio fold-change pH 3.66-7.36); assay type: biochemical
Experimental: In measuring pH-sensitivity of β-barrel variants (Supplementary Fig. 1f) in technical triplicate, 140 μL of Na2HPO4-citrate (pH 7.36 or 3.66) supplemented with 150 mM NaCl and 1.43 μM DFHBI was combined with 10.0 μL of small-scale purified protein[49] for a final concentration of 1.33 μM DFHBI. Fluorescence endpoints were measured by exciting at λex = 387 nm or λex = 483 nm and measuring fluorescence emission at λem = 501 nm or λem = 504 nm, respectively. Without background subtraction, the fluorescence ratio fold-change from pH 3.66–7.36 was calculated as:2 FluorescenceRatioFold-ChangepH3.66-7.36=FpH3.66λex=387nm,λem=501nm/FpH3.66λex=483nm,λem=504nm/FpH7.36λex=387nm,λem=501nm/FpH7.36λex=483nm,λem=504nm, where FpHλex,λem is the mean of three technical replicates of endpoint fluorescence measurements at the subscripted pH value and superscripted fluorescence excitation (λex) and fluorescence emission (λem) wavelengths.

[4] = Fluorescence intensity of circularly permuted mFAP2a variants; assay type: biochemical; settings: equimolar concentration
Experimental: To measure the fluorescence intensities of circularly permuted mFAP2a variants (Supplementary Fig. 22b, d), fluorescence endpoints were measured on a Synergy Neo2 hybrid multi-mode reader (BioTek) in flat bottom, black polystyrene, non-binding surface 96-well microplates (Corning 3650) or half-area microplates (Corning 3686). Fluorescence endpoints were measured in technical triplicate by exciting at λex = 488 nm and measuring fluorescence emission at λem = 510 nm (Supplementary Fig. 22b), or exciting at λex = 468 nm and measuring fluorescence emission at λem = 530 nm (Supplementary Fig. 22d). […]

B1: EF1n_mFAP2b: negatively allosteric Ca2+-responsive mFAP, one EF-hand motif (protein)
chain: SRAAQLLPGTWQVTMTNEDGQTSQGQWHFQPRSPYTMDIVAQGTISDGRPIVGYGKATVKTPDTLDIDITYPSLGNIKAQGQITMDSPTQFKWDAHVDKDGDGYISAAEAAAQTKILTGTLQRQE
- Ca2+-responsiveness / allostery between DFHBI and Ca2+ binding ([1]; Ca2+ titration with excess DFHBI): negative allostery
- Kd ([1]; excess DFHBI compared to protein, Hill coefficient of 1): 260 µM
- response time to Ca2+ fluxes [2]: less than 60 ms

B2: mFAP2.1: mFAP2 mutational variant (protein)
chain: SRAAQLLPGTWQVTMTNEDGQTSQGQMHFQPRSPYTMDVVAQGTISDGRTIVGYGKVTVKTPDTLDVDITYPSLGNIKAQGQITMDSPTQFKFDATTKGAGNFTGRLTGTLQRQE
- stability by circular dichroism compared to mFAP2 (Circular dichroism): improved stability at pH 2.93

B3: mFAP2.2: most pH-responsive mutant of SDM library (protein)
chain: SRAAQLLPGTWQVTMTNEDGQTSQGQMHFQPRSPYTMDVVAQGTISDGRPIVGYGKVTVKTPDTLDVDITYPSLGNIKAQGQITMDSPTQFKFDATTKGAGNFTGRLTGTLQRQE
- fluorescence ratio fold-change from pH 3.66–7.36, higher than mFAP2.1 [3]: ~ 1.3 fold

B4: cp35-34_mFAP2a_12: brightest cpmFAP tested, de novo designed α-helical linker (protein)
chain: QEMDIVAQGTISDGRPIVGYGKATVKTPDTLDIDITYPSLGNIKAQGQITMDSPTQFKWDATTKGENDFHGRLTGTLQRTEEAKEATEEARRRGITTQAAQLLPGTWQATFTNEDGQTSQGQWHFQPRDG
- fluorescence intensity relative to mFAP2a [4]: ~ 93%

Reference: PMC7870846, “Incorporation of sensing modalities into de novo designed fluorescence-activating proteins” (Nature Communications, 2021)
